# Read-outs that look alike come from different tables or passages of the source.
# Experiments:
# [1] = molecular target: T1, recombinant monkey TfR (extracellular region of cynomolgus monkey transferrin receptor, N-terminal histidine … (cynomolgus monkey (Macaca fascicularis), UniProt Q5RDH6 89-760 (Pongo abelii entry))); assay: BLI (OctetRED96), His-tagged TfR ECD on Ni-NTA biosensor, peptide in solution
# T1 construct: also called r monkey TfR; monkey TfR-ECD (Histag); not shown: histidine tag at the N-terminus
# T1 chain: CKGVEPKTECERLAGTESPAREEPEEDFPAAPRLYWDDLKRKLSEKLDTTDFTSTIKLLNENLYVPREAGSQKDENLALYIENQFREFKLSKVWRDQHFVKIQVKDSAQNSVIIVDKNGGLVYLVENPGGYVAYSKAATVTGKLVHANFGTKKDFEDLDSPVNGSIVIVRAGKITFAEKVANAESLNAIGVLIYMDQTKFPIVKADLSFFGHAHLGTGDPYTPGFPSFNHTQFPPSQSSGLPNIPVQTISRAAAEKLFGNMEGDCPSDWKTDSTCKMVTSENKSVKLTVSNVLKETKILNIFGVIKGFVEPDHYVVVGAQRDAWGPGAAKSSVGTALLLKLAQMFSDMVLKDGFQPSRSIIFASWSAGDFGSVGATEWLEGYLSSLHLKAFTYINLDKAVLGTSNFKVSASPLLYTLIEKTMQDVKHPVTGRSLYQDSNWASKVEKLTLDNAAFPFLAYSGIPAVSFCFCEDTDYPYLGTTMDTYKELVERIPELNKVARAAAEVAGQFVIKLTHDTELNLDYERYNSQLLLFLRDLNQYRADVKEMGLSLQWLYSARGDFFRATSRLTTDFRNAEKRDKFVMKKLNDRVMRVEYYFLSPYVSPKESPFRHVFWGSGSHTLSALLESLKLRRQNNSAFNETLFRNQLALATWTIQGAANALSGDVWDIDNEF
# [2] = molecular target: T2, recombinant hTfR (extracellular region of human transferrin receptor, N-terminal histidine tag) (human, UniProt P02786 89-760); assay: as above
# T2 construct: also called rhTfR; human TfR; not shown: histidine tag at the N-terminus
# [3] = molecular target: T1, recombinant monkey TfR (extracellular …); assay: as above
# [4] = molecular target: T3, recombinant mouse TfR (extracellular region of mouse transferrin receptor, N-terminal histidine tag) (mouse, UniProt Q62351 89-763); assay: as above
# T3 construct: also called r mouse TfR; mouse TfR-ECD (Histag); not shown: histidine tag at the N-terminus
# T3 sequence (Q62351 89-763): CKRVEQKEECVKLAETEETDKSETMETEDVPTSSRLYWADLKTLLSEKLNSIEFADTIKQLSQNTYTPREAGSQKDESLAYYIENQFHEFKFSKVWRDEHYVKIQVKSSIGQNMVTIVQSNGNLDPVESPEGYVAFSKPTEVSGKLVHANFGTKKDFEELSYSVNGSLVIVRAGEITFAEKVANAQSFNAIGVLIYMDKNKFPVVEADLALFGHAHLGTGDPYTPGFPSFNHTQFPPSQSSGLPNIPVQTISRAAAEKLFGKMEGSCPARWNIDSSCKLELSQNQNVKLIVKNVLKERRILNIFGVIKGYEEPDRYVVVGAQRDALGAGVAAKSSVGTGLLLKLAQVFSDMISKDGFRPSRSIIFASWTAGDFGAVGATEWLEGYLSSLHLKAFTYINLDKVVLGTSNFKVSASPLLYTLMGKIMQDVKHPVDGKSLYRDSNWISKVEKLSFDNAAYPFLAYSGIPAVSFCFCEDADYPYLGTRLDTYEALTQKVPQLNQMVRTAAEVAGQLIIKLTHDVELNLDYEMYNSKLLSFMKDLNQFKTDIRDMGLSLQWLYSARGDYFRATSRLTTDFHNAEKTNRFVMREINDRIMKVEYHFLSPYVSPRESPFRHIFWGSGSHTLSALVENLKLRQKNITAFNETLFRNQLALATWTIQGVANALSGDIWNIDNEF
# [5] = molecular target: T1, recombinant monkey TfR (extracellular …); assay: calculated from BLI KD values; reference is the KD of the same peptide for hTfR
# [6] = molecular target: T3, recombinant mouse TfR (extracellular …); assay: as above
Binder,Kd [1],Kd [2],Kd [3],Kd [4],relative value of the dissociation constant (KD with hTfR set to 1) [5],relative value of the dissociation constant (KD with hTfR set to 1) [6]
"hTfR affinity peptide 1 (VHH, also called Clone 1; VHH(1)) VHH: QVQLVESGGGLVQPGESLRLSCAASGSIFDIYVMRWYRQAPGKQREWVASIYDGGRSDYEAVVKGRFIISRDNAKNTGYLQMNSLKPEDTAVYFCNVLIYAGRNYWGQGTQVTVSS",8.24 nM,0.932 nM,82.4 nM,5.31 nM,8.84 fold,5.7 fold
"hTfR affinity peptide 3 (VHH, It says only that the purified product was obtained in the same manner as peptide 1; also called Clone 2; VHH(3)) VHH: QVQLVESGGGLVQPGESLRISCAASGSIFDIYVMRWYRQAPGKQREWVASIYDGGRSDYVNVVKGRFTISRDNAKNTGDLQMNSLKPEDTAVYFCNVLTYPGRNYWGQGTQVTVSS",–,4.4 nM,17.4 nM,5.75 nM,3.95 fold,1.31 fold

# — patent publication EP4653533A1 (JCR Pharmaceuticals Co., Ltd., dated 2025)
